Reference: publication PMC6082628

T1: Act1 SEFIR (mouse, UniProt Q8N7N6 391-537)
T1 sequence: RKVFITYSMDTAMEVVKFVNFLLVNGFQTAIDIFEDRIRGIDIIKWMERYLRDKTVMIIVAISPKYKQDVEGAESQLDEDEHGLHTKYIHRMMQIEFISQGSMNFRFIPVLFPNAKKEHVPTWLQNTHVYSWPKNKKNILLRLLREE

B1: Cxcl1 220-II (structured_RNA)
RNA: GUUGGUAGGGCAUAAUGCCCUUUUACAUUCUUUAACCCUGUUUCUCCUGGUCUCGUCUCGCUCGGGACAGAGACGUUCAAAGGACUGUUACAAAUGAAGUAAAAAUAAAAG

What was measured:
Act1 SEFIR [1] = biological target: T1, Act1 SEFIR; experiment: EMSA
Act1 SEFIR [2] = biological target: T1, Act1 SEFIR; experiment: competition
Act1 SEFIR [3] = biological target: T1, Act1 SEFIR; experiment: competition; remark: listed apart in the source
Act1 SEFIR [4] = biological target: T1, Act1 SEFIR; experiment: EMSA; remark: listed apart in the source

Binder	binding result (Act1 SEFIR [1])	further results
B1	binds	
CCUUGGACAUUUUGUGUCUAGUUGGUAAAACAUAAUGCCCUUUUACA (ssRNA) [SBE mutant C]	no binding	
CCUUGGACAUUUUGUGUCUAGUUGGUAAAACAUAAUGCCCUUUUACA (ssRNA, 2'-O-methyl on the first three residues at 5' and 3' ends (as ordered)) [SBE mutant C aptamer (competitor)]		binding result (Act1 SEFIR [2]): no binding
CCUUGGACAUUUUGUGUCUAGUUGGUAGGGCAUAAUGCCCUUUUACA (structured_RNA, 2'-O-methyl on the first three residues at 5' and 3' ends (as ordered)) [SBE WT aptamer (competitor)]		binding result (Act1 SEFIR [3]): binds
CCUUGGACAUUUUGUGUCUAGUUGGUAGGGCAUAAUGGGGUUUUACA (ssRNA) [Stem-loop C CCC to GGG]	no binding	
CCUUGGACAUUUUGUGUCUAGUUGGUACCCCAUAAUGGGGUUUUACA (structured_RNA) [SBE stem swap]		binding result (Act1 SEFIR [4]): binds
